Measurements taken from patent US20220242958A1, “BISPECIFIC NANOBODIES” (Ablynx N.V., priority 2013, published 2022).

Columns and labels:
Her3 = Her3 (Homo sapiens, UniProt P21860); details: read-out: affinity to Her3; cited from earlier work
EGFR = EGFR (Homo sapiens, UniProt P00533); details: read-out: affinity to EGFR; cited from earlier work
[1] = system: IL-12 dependent IFN-γ release, human T cells; experiment: IL-12 mediated IFN-γ release in activated human T cells; type: cell-based; details: 0.2 pM IL-12; 72 h; donor D839
Procedure: The ability of bispecific polypeptides to simultaneously engage both targets on the same cell was analysed in a IL-12 dependent functional assay, inhibition of IL-12 mediated IFN-γ release in activated human T cells. Since the functional blockade is only mediated via IL12R, avidity by the simultaneous binding of the CD4 Nanobody is expected to translate into increased potency of the bispecific in inhibition of cytokine release.
Isolated human T cells from buffycoats were activated for four days with Dynabeads® Human T-Activator CD3/CD28 (Gibco—Life Technologies #11131D) and one day with IL-2. To differentiate into Th1 subtype, T cells were cultured in presence of IL-12 with co-stimulation provided by plate coated CD3 at 0.5 μg/ml (eBioscience #16-0037-85) and anti-CD28 (1 μg/ml PeliCluster, Sanquin #M1650) in solution.
Dose-dependent blockade of IL-12 mediated IFNγ release was assessed for the bispecific IL-12Rβ2-CD4 and IL-12Rβ1-CD4 polypeptides in both orientations, and the corresponding monovalent Nanobodies. The IL-23R-CD4 bispecific polypeptides served as negative controls. Representative graphs of the bispecific IL12Rβ1-CD4, IL12Rβ2-CD4 and IL23R-CD4 polypeptides are shown in FIG. 3.9, and IC50 values in Table 3.2. […] Although bispecific constructs in both orientations show potency enhancements, the IL12Rβ2 Nanobody in the N-terminal position from CD4 gave stronger enhancements.

[2] = target: T1, human IL12Rβ1 extracellular domain Fc-fusion (Homo sapiens, UniProt P42701); experiment: SPR (Biacore T100) on IL12Rβ1-Fc; type: binding
T1 construct: Fc-fusions of human IL12Rβ1, IL12Rβ2 and IL-23R extracellular domains; purchased R&D Systems #839-B1
Procedure: (§1) The precise binding affinities of the purified Nanobodies were determined in a multi-cycle kinetic analysis using Surface Plasmon Resonance analysis (Biacore T100) on Fc-fusions of human IL12Rβ1, IL12Rβ2 and IL-23R extracellular domains (R&D Systems, #839-B1, #1959-B2, #1400-IR). Sensorchips CM5 were immobilized with anti-hIgG antibody (GE Healthcare, BR-1008-39), after which receptors were captured at 5 μg/ml protein and contact time of 120 seconds. Running buffer used was HBS-EP+ (GE Healthcare, BR-1006-69) at 25° C., with a flow-rate of […]. For immobilization by amine coupling, EDC/NHS was used for activation and ethanolamine HCl for deactivation (Biacore, amine coupling kit). Nanobodies were evaluated at a concentration range between 1.37 nM and 3 μM. Nanobodies were allowed to associate for 2 min and to dissociate for 15 min at a flow rate of […]. In between injections, the surfaces were regenerated with a 3 min pulse of 3M MgCl2 and 2 min stabilization period. Evaluation of the association/dissociation data was performed by fitting a 1:1 interaction model (Langmuir binding model) by Biacore TWO software v2.0.3.

activated human T cells = experiment: Flow cytometry binding to activated human T cells (TH1); details: IL12Rb1 and IL12Rb2 Nanobodies on TH1 activated T cells
Procedure: Dose-dependent binding of monovalent Nanobodies to their cell-expressed receptor in the context of the heterodimeric complex was determined by flow cytometry on activated human T cells from distinct healthy donors.
Human T cells were isolated using the Human T Cell Enrichment Cocktail (RosetteSep #15061) and pre-activated for four days with Dynabeads® Human T-Activator CD3/CD28 (Gibco—Life Technologies #11131D) and one day with recombinant human IL-2 (Life Technologies—Gibco #PHC0027) to induce TH1 differentiation. Routinely, T cell markers surface expression and activation state was checked by FACS using anti-CD3 PE (eBioscience #12-0037-73), anti-CD8-PE (BD Bioscience #555367), anti-CD45RO-PE (BD Bioscience #555493), anti-CD45RA-APC (BD Bioscience #550855) anti-CD25-PE (BD Bioscience #557138) and anti-CD69-PE (BD Bioscience #557050). IL12R surface expression was confirmed by FACS using IL12Rβ1 antibody (R&D MAB839), followed by goat anti-mouse PE (Jackson Immuno Research 115-115-164). The expression of IL23R was checked by polyclonal goat anti-IL-23R (R&D AF1400). CD4 surface expression was confirmed by FACS using APC-labelled anti-CD4 (BD Bioscience #345771). […]
Dose-dependent binding of monovalent Nanobodies was assessed by flow cytometry on the respective Th1 or Th17 enriched T cell populations. […] The cells were then analysed via a BD FACSArray.

[3] = target: T2, human IL-23R extracellular domain Fc-fusion (Homo sapiens, UniProt Q5VWK5); experiment: SPR (Biacore T100) on IL-23R-Fc; type: binding
T2 construct: Fc-fusions of human IL12Rβ1, IL12Rβ2 and IL-23R extracellular domains; purchased R&D Systems #1400-IR
T2 sequence (Q5VWK5 24-355 limits assumed): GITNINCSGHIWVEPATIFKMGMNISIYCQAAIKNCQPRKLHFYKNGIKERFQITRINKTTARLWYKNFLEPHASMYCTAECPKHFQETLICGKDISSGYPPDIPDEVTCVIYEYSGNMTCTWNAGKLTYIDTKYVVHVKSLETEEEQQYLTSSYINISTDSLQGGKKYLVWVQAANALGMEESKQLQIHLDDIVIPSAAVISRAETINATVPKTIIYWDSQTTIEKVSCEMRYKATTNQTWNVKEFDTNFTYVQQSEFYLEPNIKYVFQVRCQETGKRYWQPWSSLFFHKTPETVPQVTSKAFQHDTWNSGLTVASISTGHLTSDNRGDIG
Procedure: as §1

[4] = system: IL-23 dependent IL-17 release, human PBMCs; experiment: IL-23 dependent IL-17 release in human PBMCs; type: cell-based; details: 9 days; donor D840
Procedure: In this assay set-up human PBMCs were cultured in the presence of soluble IL23 to allow differentiation of T cells towards the Th17 phenotype. Cells were seeded onto OKT-3 (eBioscience #16-0037-85) coated plates in the presence of recombinant human IL-23 (eBioscience #14-8239) and PeliCluster CD28 (Sanquin #M1650) in solution. Cytokine (IL17) release in the presence or absence of the respectively Nanobodies was determined by ELISA after an incubation period of 9 days.
Dose-dependent inhibition of the panel of bispecific IL23R-CD4 and IL12Rβ1-CD4 polypeptides was assessed in comparison to the respective monovalent Nanobodies, with in this case the IL12Rβ1-CD4 specific polypeptides serving as negative controls. […] There is a preference for the IL12Rβ1 building block in the C-terminal position from CD4 in this assay. There is a clear difference in potency between the two IL12Rβ1 family members, corresponding to the different binding kinetics and affinities, and this difference is preserved in the potency of the bispecific constructs.

[5] = target: T3, IL23R on Th17 differentiated T cells (Homo sapiens, UniProt Q5VWK5); experiment: Flow cytometry binding to T cells differentiated towards Th17 phenotype; details: IL23R Nanobodies on Th17 differentiated cells
T3 construct: endogenous in cells; host or cells: T cells within human PBMCs differentiated towards Th17
T3 sequence (Q5VWK5 24-629): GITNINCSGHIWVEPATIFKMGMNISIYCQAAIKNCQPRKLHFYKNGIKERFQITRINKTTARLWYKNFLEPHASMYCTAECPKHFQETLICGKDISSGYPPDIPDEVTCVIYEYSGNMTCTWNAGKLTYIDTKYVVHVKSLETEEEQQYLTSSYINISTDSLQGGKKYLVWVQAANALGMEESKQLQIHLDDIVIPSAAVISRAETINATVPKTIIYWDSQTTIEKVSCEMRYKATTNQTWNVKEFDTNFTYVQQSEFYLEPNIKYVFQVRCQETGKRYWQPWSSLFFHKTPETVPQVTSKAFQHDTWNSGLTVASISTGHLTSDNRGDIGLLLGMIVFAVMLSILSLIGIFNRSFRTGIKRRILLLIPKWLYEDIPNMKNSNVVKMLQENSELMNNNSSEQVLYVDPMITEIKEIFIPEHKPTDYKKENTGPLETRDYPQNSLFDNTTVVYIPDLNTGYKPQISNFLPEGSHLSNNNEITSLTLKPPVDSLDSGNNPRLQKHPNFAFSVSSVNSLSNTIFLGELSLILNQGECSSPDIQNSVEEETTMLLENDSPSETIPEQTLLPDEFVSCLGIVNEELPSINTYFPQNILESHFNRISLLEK
Procedure: As the expression of IL23R was very low in the T cell pool, the binding of monovalent IL23R Nanobodies was assessed on cells that were differentiated towards the Th17 phenotype by the incubation of PBMCs in the presence of a cytokine cocktail and IL-23, recombinant IL-6 (eBioscience #34-8069-82), recombinant TGF-b1 (R&D #240-B), anti-human IL-4 antibody(BD#554481), recombinant IL-1b (BD#554602)) and recombinant Human IL-23 (R&D Systems #219-IL-005) with co-stimulation of plate coated OKT-3 (eBioscience #16-0037-85), PeliCluster CD28 (Sanquin #M1650). Following this procedure, low but detectable IL23R expression levels were obtained. Optimization in the Th17 differentiation protocol could further increase these expression levels.
Dose-dependent binding of monovalent Nanobodies was assessed by flow cytometry on the respective Th1 or Th17 enriched T cell populations. Serial dilutions of antibody or Nanobodies were allowed to associate for 30 minutes at 4° C. in FACS buffer (PBS supplemented with 10% FBS and 0.05% azide). Cells were washed by centrifugation and probed with anti-FLAG antibodies (Sigma F1804) for 30 minutes at 4° C., to detect bound Nanobody. Detection was done with Goat anti-Mouse IgG-PE (Jackson ImmunoResearch #115-116-071) for 30 minutes at 4° C. […] The cells were then analysed via a BD FACSArray.

B1: MEHD7945A: two-in-one Mab with specificity for EGFR and Her3 (antibody, chains of the INN, looked up, V domains shown)
VH: EVQLVESGGGLVQPGGSLRLSCAASGFTLSGDWIHWVRQAPGKGLEWVGEISAAGGYTDYADSVKGRFTISADTSKNTAYLQMNSLRAEDTAVYYCARESRVSFEAAMDYWGQGTLVTVSS
VL: DIQMTQSPSSLSASVGDRVTITCRASQNIATDVAWYQQKPGKAPKLLIYSASFLYSGVPSRFSGSGSGTDFTLTISSLQPEDFATYYCQQSEPEPYTFGQGTKVEIK
Her3
  Kd: 0.39 nM
EGFR
  Kd: 1.9 nM

B2: IL12Rb1#31: IL-12Rβ1 specific ligand competing Nanobody (protein)
VHH: EVQLVESGGGLVQTGGSLRLSCAASGRTPSIIAMGWFRQTPGKEREFVGEIILSKGFTYYADSVKGRFTISRANAKNTITMYLQMNSLKSEDTAVYYCAARQNWSGNPTRTNEYEYWGQGTLVTVSS
[1]
  IFNγ release T cells D839 IC50 (M): no fit
[2]
  Binding kinetics (SPR) ka (1/Ms), IL12Rβ1: 720000 M⁻¹ s⁻¹
  Binding kinetics (SPR) kd (1/s), IL12Rβ1: 0.017 s⁻¹
Activated human T cells
  Binding T cells (FACS) EC50 (M): No fit

B3: IL23R#20: IL-23R specific ligand competing Nanobody (protein)
VHH: EVQLVESGGGLVQAGGSLRLSCAASGRTFSSYAMGWFRQAPGKDREFVAAISWIGESTYYADSVKGRFTISRDNAKNTVYLRMNSLKPEDTAVYYCAADLYYTAYVAAADEYDYWGQGTLVTVSS
[3]
  Binding kinetics (SPR) ka (1/Ms), IL-23R: 3e+06 M⁻¹ s⁻¹
  Binding kinetics (SPR) kd (1/s), IL-23R: 0.23 s⁻¹
[4]
  IL-17 release PBMC D840 IC50 (M): no fit
[5]
  Binding T cells (FACS) EC50 (M): No fit
